Source: patent US20240270821A1, “GIP/GLP1/GCG TRI-RECEPTOR AGONISTS AND USES THEREOF” (priority 2023, published 2024)
Non-standard residues stand in square brackets, D forms with d. No end group written: not given here. αMePhe(2-F) = C[C@](N)(Cc1ccccc1F)C(=O)O; Aib = CC(C)(N)C(=O)O

What was measured:
Assay in all cases: cell-based or functional assay
[1] = target: human glucagon receptor (human) (UniProt P47871)
[2] = target: T1, human GIP receptor (human) (UniProt P48546)
T1 sequence (looked up): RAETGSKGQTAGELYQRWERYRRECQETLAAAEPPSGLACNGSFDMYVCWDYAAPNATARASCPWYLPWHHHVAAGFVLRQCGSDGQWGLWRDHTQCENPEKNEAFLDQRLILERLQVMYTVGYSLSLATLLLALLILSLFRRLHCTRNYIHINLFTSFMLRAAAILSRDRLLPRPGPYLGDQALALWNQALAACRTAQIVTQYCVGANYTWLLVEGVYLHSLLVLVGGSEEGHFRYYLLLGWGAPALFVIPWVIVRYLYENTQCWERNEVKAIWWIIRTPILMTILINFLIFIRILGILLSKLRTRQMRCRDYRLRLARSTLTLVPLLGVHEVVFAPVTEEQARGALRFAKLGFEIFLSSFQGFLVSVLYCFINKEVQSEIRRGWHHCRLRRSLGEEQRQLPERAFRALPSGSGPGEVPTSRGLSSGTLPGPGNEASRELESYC

hGLP-1R = hGLP-1R (Homo sapiens, UniProt P43220)
Sequence of hGLP-1R (P43220 24-463): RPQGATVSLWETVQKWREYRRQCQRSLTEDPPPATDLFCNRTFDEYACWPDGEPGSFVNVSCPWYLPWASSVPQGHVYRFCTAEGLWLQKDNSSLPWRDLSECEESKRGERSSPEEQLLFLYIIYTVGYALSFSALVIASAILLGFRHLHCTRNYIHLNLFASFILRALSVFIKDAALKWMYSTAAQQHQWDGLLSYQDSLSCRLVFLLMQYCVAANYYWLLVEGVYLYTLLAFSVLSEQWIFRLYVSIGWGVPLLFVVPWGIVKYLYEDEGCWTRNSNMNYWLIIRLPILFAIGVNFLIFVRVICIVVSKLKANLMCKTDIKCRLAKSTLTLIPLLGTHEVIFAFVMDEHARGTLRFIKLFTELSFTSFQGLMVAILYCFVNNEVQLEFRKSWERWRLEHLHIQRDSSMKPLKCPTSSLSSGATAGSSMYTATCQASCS

Sequence of human glucagon receptor (human) (P47871 26-477): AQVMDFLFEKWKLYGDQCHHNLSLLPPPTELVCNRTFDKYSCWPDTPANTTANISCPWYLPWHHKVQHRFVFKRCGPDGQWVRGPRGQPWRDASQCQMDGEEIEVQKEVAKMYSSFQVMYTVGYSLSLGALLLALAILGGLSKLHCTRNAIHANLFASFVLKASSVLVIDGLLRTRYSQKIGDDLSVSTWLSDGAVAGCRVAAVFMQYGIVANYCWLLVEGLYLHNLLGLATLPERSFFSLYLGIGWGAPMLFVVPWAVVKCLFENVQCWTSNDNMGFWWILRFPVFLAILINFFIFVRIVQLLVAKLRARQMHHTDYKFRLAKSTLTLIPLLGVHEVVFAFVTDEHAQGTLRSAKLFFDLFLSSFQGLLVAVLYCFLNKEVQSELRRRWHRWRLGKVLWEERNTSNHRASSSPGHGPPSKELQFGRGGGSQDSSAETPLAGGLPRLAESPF

Binder	Relative cAMP EC50 [1]	cAMP Rel EC50, nM (1% HSA) [1]	Relative cAMP EC50 [2]	cAMP Rel EC50, nM (1% HSA) [2]	Relative cAMP EC50 (hGLP-1R)	cAMP Rel EC50, nM (1% HSA) (hGLP-1R)	cAMP Rel EC50 (in the presence of 1% HSA) [1]	cAMP Rel EC50 (in the presence of 1% HSA) [2]	cAMP Rel EC50 (in the presence of 1% HSA) (hGLP-1R)
YXQGTXTSDYSILLDKKAQXAFIEXLEEGGPSSGAPPPSEG (synthetic construct; SITE 2: note = 2-Aminoisobutyric Acid; SITE 6: note = alpha-methyl-2-fluoro-L-phenylalanine; SITE 17: note = Lysine is chemically modified through conjugation of the epsilon-amino group of the Lysine side chain with (2-[2-(2-Amino-ethoxy)-ethoxy]-acetyl)-(gamma-Glu)-CO-(CH2) 16-) [Example 411]	3.94 nM	1170 nM	0.058 nM	23.8 nM	0.709 nM	82.1 nM	–	–	–
YXQGTXTSDYSILLDKKAQXAFIEFLEEGGPSSGAPPPSEG (not fully specified; synthetic construct; SITE 2: note = 2-Aminoisobutyric Acid; SITE 6: note = alpha-methyl-2-fluoro-L-phenylalanine; SITE 17: note = Lysine is chemically modified through conjugation of the epsilon-amino group of the Lysine side chain with (2-[2-(2-Amino-ethoxy)-ethoxy]-acetyl)-(gamma-Glu)-CO-(CH2) 16-) [Example 412]	2.36 nM	467 nM	0.0351 nM	12.5 nM	0.282 nM	46 nM	–	–	–
YXQGTXTSDYSIXLDKKAQXAFIEYLLETGPSSGAPPPSEG (synthetic construct; SITE 2: note = 2-Aminoisobutyric Acid; SITE 6: note = alpha-methyl-2-fluoro-L-phenylalanine; SITE 13: note = alpha-methyl-leucine; SITE 17: note = Lysine is chemically modified through conjugation of the epsilon-amino group of the Lysine side chain with (2-[2-(2-Amino-ethoxy)-et)) [Example 417]	2.83 nM	386 nM	0.0144 nM	4.46 nM	0.328 nM	67 nM	–	–	–
YXQGTXTSDYSIXLDKKAQXAFIEYLEEGGPSSGAPPPSEG (synthetic construct; SITE 2: note = 2-Aminoisobutyric Acid; SITE 6: note = alpha-methyl-2-fluoro-L-phenylalanine; SITE 13: note = alpha-methyl-leucine; SITE 17: note = Lysine is chemically modified through conjugation of the epsilon-amino group of the Lysine side chain with (2-[2-(2-Amino-ethoxy)-et)) [Example 431]	3.32 nM	352 nM	0.0157 nM	3.73 nM	0.392 nM	35.2 nM	–	–	–
YXQGTXTSDXXIXLDXKAQXXFIEXLIEGGPSSGAPEPSEG (synthetic construct; SITE 2: note = 2-Aminoisobutyric Acid; SITE 6: note = alpha-methyl-2-fluoro-L-phenylalanine; SITE 10: note = 3-(4-Pyridyl)-L-alanine; SITE 11: note = alpha-methyl-L-serine; SITE 13: note = alpha-methyl-leucine; SITE 16: note = L-ornithine; SITE 17: note = Lysine is chemically mo) [Example 429]	1.19 nM	138 nM	0.0142 nM	1.89 nM	0.178 nM	12.1 nM	–	–	–
Y[Aib]QGT[αMePhe(2-F)]TSDYSILLDAKAFIEYLEEGGPSSGAPPPSEG-NH2 (not fully specified (residue 17)) [Example 410]	9.94 nM	1950 nM	0.0708 nM	49.3 nM	0.354 nM	84.4 nM	–	–	–
YXQGTXTSDXSILLDKKAQXAFIEYLEEGGPSSGAPPPS (not fully specified; synthetic construct; SITE 2: note = 2-Aminoisobutyric Acid; SITE 6: note = alpha-methyl-2-fluoro-L-phenylalanine; SITE 10: note = 3-(4-Pyridyl)-L-alanine; SITE 17: note = Lysine is chemically modified through conjugation of the epsilon-amino group of the Lysine side chain with (gamma-Glu)2-CO-(CH2)1) [Example 413]	6.3 nM	629 nM	0.0881 nM	23.5 nM	0.564 nM	41.4 nM	–	–	–
YXQGTXTSDYSILLDKKAQXAFIEYLLEGGPSSGAPPPS (synthetic construct; SITE 2: note = 2-Aminoisobutyric Acid; SITE 6: note = alpha-methyl-L-phenylalanine; SITE 17: note = Lysine is chemically modified through conjugation of the epsilon-amino group of the Lysine side chain with (2-[2-(2-Amino-ethoxy)-ethoxy]-acetyl)2-(gamma-Glu)-CO-(CH2 )16-CO2H; SI) [Example 419]	8.52 nM	1650 nM	0.0235 nM	9.47 nM	0.615 nM	65.5 nM	–	–	–
HXQGTXTSDYSILLDKKAQXAFIEYLEEGGPSSGAPPPS (not fully specified; synthetic construct; SITE 2: note = 2-Aminoisobutyric Acid; SITE 6: note = alpha-methyl-2-fluoro-L-phenylalanine; SITE 17: note = Lysine is chemically modified through conjugation of the epsilon-amino group of the Lysine side chain with (2-[2-(2-Amino-ethoxy)-ethoxy]-acetyl)-(gamma-Glu)-CO-(CH2) 16-) [Example 425]	5.49 nM	1150 nM	0.0997 nM	46.9 nM	0.15 nM	20.3 nM	–	–	–
YXQGTXTSDYSILLDKKAQXXFIEYLEEGGPSSGAPPPS (synthetic construct; SITE 2: note = 2-Aminoisobutyric Acid; SITE 6: note = alpha-methyl-2-fluoro-L-phenylalanine; SITE 17: note = Lysine is chemically modified through conjugation of the epsilon-amino group of the Lysine side chain with (gamma-Glu)2-CO-(CH2)16-CO2H; SITE 20: note = 2-Aminoisobutyric) [Example 415]	8.64 nM	1090 nM	0.0496 nM	28.9 nM	0.38 nM	52.6 nM	–	–	–
YXQGTXTSDYSILLDKKAQXNFIEYLEEGGPSSGAPPPS (synthetic construct; SITE 2: note = 2-Aminoisobutyric Acid; SITE 6: note = alpha-methyl-2-fluoro-L-phenylalanine; SITE 17: note = Lysine is chemically modified through conjugation of the epsilon-amino group of the Lysine side chain with (gamma-Glu)2-CO-(CH2)16-CO2H; SITE 20: note = 2-Aminoisobutyric) [Example 416]	2.08 nM	348 nM	0.0393 nM	27.6 nM	0.331 nM	40.8 nM	–	–	–
YXQGTXTSDYSIXLDKKAQXAFIEYLEEGGPSSGAPPPS (synthetic construct; SITE 2: note = 2-Aminoisobutyric Acid; SITE 6: note = alpha-methyl-2-fluoro-L-phenylalanine; SITE 13: note = alpha-methyl-leucine; SITE 17: note = Lysine is chemically modified through conjugation of the epsilon-amino group of the Lysine side chain with (2-[2-(2-Amino-ethoxy)-et)) [Example 421]	3.25 nM	468 nM	0.0132 nM	2.98 nM	0.21 nM	31.9 nM	–	–	–
YXQGTXTSDYSILLDXKAQXAFIEYLLEGGPSSGAPPPS (synthetic construct; SITE 2: note = 2-Aminoisobutyric Acid; SITE 6: note = alpha-methyl-2-fluoro-L-phenylalanine; SITE 16: note = L-ornithine; SITE 17: note = Lysine is chemically modified through conjugation of the epsilon-amino group of the Lysine side chain with (gamma-Glu)2-CO-(CH2)16-CO2H; SITE) [Example 428]	2.35 nM	536 nM	0.01 nM	4.55 nM	0.207 nM	38.2 nM	–	–	–
HXQGTXTSDYSILLDKKAQXAFIEYLEEGGPSSGAPPPS (synthetic construct; SITE 2: note = 2-Aminoisobutyric Acid; SITE 6: note = alpha-methyl-2-fluoro-L-phenylalanine; SITE 17: note = Lysine is chemically modified through conjugation of the epsilon-amino group of the Lysine side chain with (gamma-Glu)2-CO-(CH2)16-CO2H; SITE 20: note = 2-Aminoisobutyric) [Example 426]	4.33 nM	740 nM	0.079 nM	29.8 nM	0.139 nM	16.6 nM	–	–	–
YXQGTXTSDXSILLDKKAQXAFIEYLLEGGPSSGAPPPS (synthetic construct; SITE 2: note = 2-Aminoisobutyric Acid; SITE 6: note = alpha-methyl-L-phenylalanine; SITE 10: note = 3-(4-Pyridyl)-L-alanine; SITE 17: note = Lysine is chemically modified through conjugation of the epsilon-amino group of the Lysine side chain with (2-[2-(2-Amino-ethoxy)-ethoxy]-) [Example 418]	4.7 nM	627 nM	0.0153 nM	6.02 nM	0.264 nM	36.6 nM	–	–	–
YXQGTXTSDYSILLDKIAQXAFIKYLEEGGPSSGAPPPS (not fully specified; synthetic construct; SITE 2: note = 2-Aminoisobutyric Acid; SITE 6: note = alpha-methyl-2-fluoro-L-phenylalanine; SITE 20: note = 2-Aminoisobutyric Acid; SITE 24: note = Lysine is chemically modified through conjugation of the epsilon-amino group of the Lysine side chain with (2-[2-(2-Amino-ethoxy)-) [Example 430]	2.11 nM	559 nM	0.0144 nM	4.65 nM	0.438 nM	78.9 nM	–	–	–
YXQGTXTSDYSILLDXKAQXAFIEYLEEGGPSSGAPPPS (synthetic construct; SITE 2: note = 2-Aminoisobutyric Acid; SITE 6: note = alpha-methyl-2-fluoro-L-phenylalanine; SITE 16: note = L-ornithine; SITE 17: note = Lysine is chemically modified through conjugation of the epsilon-amino group of the Lysine side chain with (gamma-Glu)2-CO-(CH2)16-CO2H; SITE) [Example 414]	4.56 nM	487 nM	0.0303 nM	14.9 nM	0.176 nM	32.8 nM	–	–	–
YXQGTXTSDYSIXLDKKAQXAFIEYLEEGGPSSGAPEPS (synthetic construct; SITE 2: note = 2-Aminoisobutyric Acid; SITE 6: note = alpha-methyl-2-fluoro-L-phenylalanine; SITE 13: note = alpha-methyl-leucine; SITE 17: note = Lysine is chemically modified through conjugation of the epsilon-amino group of the Lysine side chain with (2-[2-(2-Amino-ethoxy)-et)) [Example 423]	1.92 nM	319 nM	0.0114 nM	3.07 nM	0.194 nM	28.7 nM	–	–	–
YXQGTXTSDYSILLDXKAQXAFIEYLLEGGPSSGAPPPS (synthetic construct; SITE 2: note = 2-Aminoisobutyric Acid; SITE 6: note = alpha-methyl-2-fluoro-L-phenylalanine; SITE 16: note = L-ornithine; SITE 17: note = Lysine is chemically modified through conjugation of the epsilon-amino group of the Lysine side chain with (2-[2-(2-Amino-ethoxy)-ethoxy]-ace)) [Example 427]	3.81 nM	1440 nM	0.0121 nM	4.25 nM	0.282 nM	42.9 nM	–	–	–
YXQGTXTSDYSIXLDKKAQXAFIEYLEEGGPSSGAPPPSE (synthetic construct; SITE 2: note = 2-Aminoisobutyric Acid; SITE 6: note = alpha-methyl-2-fluoro-L-phenylalanine; SITE 13: note = alpha-methyl-leucine; SITE 17: note = Lysine is chemically modified through conjugation of the epsilon-amino group of the Lysine side chain with (2-[2-(2-Amino-ethoxy)-et)) [Example 424]	3.12 nM	443 nM	0.0154 nM	3.21 nM	0.318 nM	29.5 nM	–	–	–
YXQGTXTSDYXIXLDXKAQXAFIEYLLEGGPSSGEPPPE (synthetic construct; SITE 2: note = 2-Aminoisobutyric Acid; SITE 6: note = alpha-methyl-L-phenylalanine; SITE 11: note = alpha-methyl-L-serine; SITE 13: note = alpha-methyl-leucine; SITE 16: note = L-ornithine; SITE 17: note = Lysine is chemically modified through conjugation of the epsilon-amino gr) [Example 420]	2.49 nM	433 nM	0.0131 nM	2.61 nM	0.205 nM	31.3 nM	–	–	–
YXQGTFTSDFSKXLDKKAQXAFIQWLLEGGPSSGAPPPSEG (synthetic construct; SITE 2: note = 2-Aminoisobutyric Acid; SITE 13: note = alpha-methyl-leucine; SITE 17: note = Lysine is chemically modified through conjugation of the epsilon-amino group of the Lysine side chain with (2-[2-(2-Amino-ethoxy)-ethoxy]-acetyl)-(gamma-Glu)-CO-(CH2) 18-CO2H; SITE 20: n) [Example 39]	10.1 nM	–	0.299 nM	–	2.13 nM	–	1090 nM	30.5 nM	260 nM
